Assay results from patent US20070134734.

Columns and labels:
[1] = target: GST-fused eIF4B (GST gene fused to the N-terminus), cell-free synthesized (UniProt P23588)
[2] = target: GST-fused stress-induced phosphoprotein 1 (STIP1) (GST gene fused to the N-terminus), cell-free synthesized (UniProt P31948)

GST-fused eIF4B (GST gene fused to the N-terminus), cell-free synthesized, sequence (P23588 whole entry, the tested form may be a part): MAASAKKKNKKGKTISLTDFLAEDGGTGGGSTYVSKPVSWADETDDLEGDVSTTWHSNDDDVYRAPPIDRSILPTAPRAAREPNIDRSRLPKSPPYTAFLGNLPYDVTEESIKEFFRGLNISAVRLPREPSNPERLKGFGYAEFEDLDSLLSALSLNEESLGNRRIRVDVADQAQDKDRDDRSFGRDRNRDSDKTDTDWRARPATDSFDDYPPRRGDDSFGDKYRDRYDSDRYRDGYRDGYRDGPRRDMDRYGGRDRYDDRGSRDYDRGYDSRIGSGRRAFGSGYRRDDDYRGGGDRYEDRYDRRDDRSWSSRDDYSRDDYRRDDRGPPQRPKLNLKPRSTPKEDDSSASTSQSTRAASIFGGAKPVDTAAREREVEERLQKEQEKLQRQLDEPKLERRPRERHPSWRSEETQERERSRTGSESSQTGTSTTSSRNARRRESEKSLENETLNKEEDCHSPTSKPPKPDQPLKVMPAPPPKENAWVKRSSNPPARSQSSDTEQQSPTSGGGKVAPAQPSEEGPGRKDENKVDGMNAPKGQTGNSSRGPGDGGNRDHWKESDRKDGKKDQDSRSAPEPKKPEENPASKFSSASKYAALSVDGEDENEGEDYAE

Substance: human CaMKIIδ protein (calmodulin kinase II delta), synthesized in a wheat embryo cell-free protein synthesis system
- in vitro phosphorylation assay ([γ-32P]ATP, GST-fused substrate on glutathione resin, SDS-PAGE autoradiography) [1]: there was reproduced the reaction in which GST-fused eIF4B and STIP1 were phosphorylated by CaMKIIδ
- in vitro phosphorylation assay ([γ-32P]ATP, GST-fused substrate on glutathione resin, SDS-PAGE autoradiography) [2]: there was reproduced the reaction in which GST-fused eIF4B and STIP1 were phosphorylated by CaMKIIδ
